# Reference: the RNAGym collection of RNA variant scans (doi:10.1073/pnas.2313332121)
# Variants at the floor of the assay were thinned out.
# B1: TPR 5TU (parent)
# chain: GGAUCUUCUCGAUCUAACAAAAAAGACAAAUCUGCCACAAAGCUUGAGAGCAUCUUCGGAUGCAGAGGCGGCAGCCUUCGGUGGCGCGAUAGCGCCAACGUUCUCAACUAUGACACGCAAAACGCGUGCUCCGUUGAAUGGAGUUUAUCAUG
# Variants of: B1
# Assay: polymerase ribozyme fitness, log enrichment relative to wild type (log ratio); higher = more active; in vitro selection for triplet polymerase activity
# Summary of the method: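 One round of in vitro selection, in triplicate, was applied to PCR-built, transcribed mutant libraries of each subunit of a heterodimeric triplet polymerase ribozyme. The steps were annealing with a biotinylated primer, partner subunit and triplets, incubation frozen at −7 °C, gel excision of extended constructs, streptavidin-bead capture and RT-PCR. Fitness is the logarithm, base 2, of genotype enrichment over wild-type enrichment from inverse-variance-weighted replicate averages of Illumina-sequenced inputs and outputs, keeping genotypes with ≥10 input reads and ≥1 read per output.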
row,Variant,polymerase ribozyme fitness (log ratio)
1,U55A U139A,-4.05
2,U55A G126C,1.42
3,U55A G126A,-1.02
4,C54U G68U U82A G94A A97C G117A A138C G141A,≤ -4.2
5,U53G C93U,-1.92
6,C54A C116G,-0.685
7,U55A C57G A89U G136C,-3.69
8,C54A U55A U77G A121C A137U,≤ -4.2
9,C54G A147C,-1.47
10,U53G G83U G86A U104C,≤ -4.2
11,U53G A137G,-2.32
12,U53G C103A C105G U130A,≤ -4.2
13,U55A G94U G117U C131A G136A,≤ -4.2
14,U53A G81A C99U,-2.36
15,U53G C87A A120U A142U U146A,≤ -4.2
16,U53G U55A,-1.92
17,U55A G59C C103U U104G,-3.29
18,U53A G80C,≤ -4.2
19,U53C G143U,-2.74
20,C54G U55A G58A C99G C132A,≤ -4.2
21,C54U U61A A106G G152C,≤ -4.2
22,U53A U61A C85U A97U C108U,≤ -4.2
23,U53C C57G U61A G124A G128U,-4.14
24,U55A C85A G141C,-1.86

row,Variant,polymerase ribozyme fitness (log ratio)
1,U53A U55A C95A A98G C123U G143C,-3.34
2,U53G G92C C93A,≤ -4.2
3,U55A C63U A142U,-0.552
4,C54U G84A G92U U144A,-1.38
5,U55A G83A G124A,-0.748
6,U55A C72A U139C,≤ -4.2
7,C54U U135A G136C,-3.76
8,U53G G59U C125U G141C,-3.86
9,C54G A97G,-0.818
10,C54U G59A G70C,-2.48
11,C54U U78G C96G A113U,≤ -4.2
12,U55A A107C,≤ -4.2
13,U55A U56A A97U,-0.565
14,U55A G71A G81C C95G C125U,≤ -4.2
15,C54G C75G G86U G92C G124U C125A A137C U151C,≤ -4.2
16,C54U U104G,-1.21
17,U53G C54G C96G C114U,≤ -4.2
18,C54U C75U G84C A98U A113G C129U,≤ -4.2
19,C54G C95A C118G,-2.03
20,C54U G83U,-0.319
21,C54U G83A,-0.655
22,C54U U77G A121C,≤ -4.2
23,U53C C72A U139C A150G,≤ -4.2
24,C54U A60C C99U,-3.17

row,Variant,polymerase ribozyme fitness (log ratio)
1,C54U U90C G94A C131U,≤ -4.2
2,C54G G59C G83U C87U G94A U102C U148G,≤ -4.2
3,C54U G58A A64C G71A,≤ -4.2
4,U55G C69A A97U A119U G141A,-1.39
5,C54U A91C G92U C105U G133U,≤ -4.2
6,C54G C85A G92C G133U U146G,≤ -4.2
7,U55A C149U,-1.55
8,U53A G74A U77A C96U G126C,≤ -4.2
9,U55A G62U C63G C87U A98U A120U C149G,≤ -4.2
10,C54G G140U,-3.63
11,U55A A98U,-0.0691
12,U55C G59A C96A,-3.02
13,C54A C57U C95U,-1.9
14,U55A U56A C69U C79U G86A A91U A106C A121G C125U A142C,≤ -4.2
15,U53C A97U C114G U145A,-3.74
16,U55A U101G A107G A138C G141A,≤ -4.2
17,U55A U82G C96G C116U G140C,-4.17
18,U55A G62A C96U,-2.14
19,C54G C76U U77C C87A G126U,≤ -4.2
20,U55A C87A C108G,≤ -4.2
21,C54U U56A G58A C85U C95A,-1.2
22,C54A G59U A60C G83A C116A,-2.11
23,U55C G62A A64C C72G G140U U144A,≤ -4.2
24,U55A U77G U134C U139C,≤ -4.2

row,Variant,polymerase ribozyme fitness (log ratio)
1,C54G U146G,-2.99
2,C54G A89U C95U A97C,-2.48
3,U55A C79U C85U,-3.3
4,C54U C95A,-1.44
5,C54A U55A,-1.91
6,U55A C85A C125A,-1.75
7,U55A G59A C75U G92U C99G C129G U139G,≤ -4.2
8,C54A A91G U104G U127A G152A,≤ -4.2
9,C54U A66G C72U G81C C96A A107G G133U U145A,≤ -4.2
10,U53G C76A U134A,≤ -4.2
11,U53G G74A C114G,≤ -4.2
12,C54A A73U C87U,-3.49
13,U55A A91G,-2.86
14,U55A A66U C79U G80C C87G C116U U145G,≤ -4.2
15,C54G A97C G124A,-0.735
16,C54A U56A,-1.31
17,U53G G58A,-1.53
18,U53A U55A,-2.2
19,U55A G71U G117A,-3.07
20,C54G G133C,-2.55
21,C54A G70A,-3.79
22,C54A C96U,-1.43
23,U53G A107C,≤ -4.2
24,U55A G81C G84U C116A,-2.11

row,Variant,polymerase ribozyme fitness (log ratio)
1,U55A C93G G143A,-3.93
2,U53A G83U A147C,-1.91
3,C54U U55A G86A C116G,-2.2
4,C54G G92A C132A,≤ -4.2
5,C54G C76A C93G C123U,≤ -4.2
6,C54A G70A C95U A120G,-3.62
7,C54U G92U A147U,0.0812
8,U53G U61A A97G A113U,-4.18
9,U55C A119G U145A,-0.113
10,U53A G86A A91C G128C,≤ -4.2
11,U55A A64G U135A,≤ -4.2
12,U55A C85A G100A A121G C131A,≤ -4.2
13,U53A G92C U102C,-3.58
14,C54U A60C C75A A91U C96U A97G A107C G136A A137U,≤ -4.2
15,U55A G92A C125A,-3.46
16,C54U U82G,0.0533
17,U55A G141C,-0.199
18,U53A G88U,≤ -4.2
19,C54U C63U G94U G143A,-2.26
20,U55A G70C G92U A119U,-3.25
21,C54U G71C C116U G136A U146C,-3.51
22,U55A A64G G84A C93G A137G A142U,≤ -4.2
23,U53G C69A C99U C118A,≤ -4.2
24,C54U C69G C85G,-3.9

row,Variant,polymerase ribozyme fitness (log ratio)
1,U55A A89G,-1.16
2,U55A A89C,-0.409
3,C54G C95G,-2.56
4,U55C G70A,-3.5
5,C54A C95U,-2.22
6,C54U C93U C105G G126C,-2.01
7,U53G G68A,≤ -4.2
8,U55G A98G,-0.84
9,U55A C85G C114A A142C U151A,-4.19
10,U53A U144A,-1.56
11,C54U U56A G133C,-1.7
12,C54U C76U C123A U139G U146C A150C,≤ -4.2
13,U53G C125U,-1.66
14,U55A U148C,-1.05
15,C54G C75A,≤ -4.2
16,C54G C75U,-1.86
17,U55A G81A G86A U109G A150G,≤ -4.2
18,C54U G83C C85G A138G,≤ -4.2
19,C54A C95U A106C,-2.19
20,U55A A60U U101G,-0.433
21,U53A G71C G88A,≤ -4.2
22,U55A G58U C93G,-3.78
23,C54U U151C,-3.65
24,U53A U61C C79G A115U A150U,≤ -4.2

row,Variant,polymerase ribozyme fitness (log ratio)
1,U53G A97G,-1.44
2,U53C C72U C132U,-3.52
3,U55A C96G,-1.04
4,U55A C96A,-1.21
5,C54U C87U C105A,-2.09
6,C54U C103A,-2.22
7,U53G G59C U61A G88C G94U,≤ -4.2
8,U53G C54G C85A U134A,≤ -4.2
9,C54A G83U,-1.19
10,C54G G59A C76A C85G A121C C123A U127G G140C G143U A150C,≤ -4.2
11,C54U U144A,-0.258
12,C54A C85U C105U A142C,-2.12
13,U55A A60G C99G G141C,-2.6
14,U55A C95A G143A U144C,-3.04
15,C54A A91G A120G,-3.57
16,U53G G58C C95G A122U,≤ -4.2
17,U55A A73U C99U U145C,≤ -4.2
18,C54U A122U,0.0261
19,C54G A73G C79A U82G C87U A122U G141C,≤ -4.2
20,U55A A137G G141A,-1.96
21,C54U G71A A97U C105U A106C,≤ -4.2
22,C54G G84A,-1.74
23,U53G A60U C69U C131G,≤ -4.2
